# Reference: US10400224B2, “Enantioselective modified esterase enzyme and method for the production thereof” (CORPORACIÓN CORPOGEN, priority 2014, dated 2019)
# How the values were obtained:
# [1] = Optimum temperature and pH of the modified enzyme (p-nitrophenyl ester assay); format: biochemical
# Protocol: The activity of the modified enzyme was determined spectrophotometrically at 405 nm in a range of temperatures between 45 and 75° C., using p-nitro phenyl of other chains C6 to C10 (Sigma-Aldrich) as substrate. One unit of esterase activity was defined as the capacity of the enzyme to release 1 μmol min^−1 of p-nitrophenol under the essay conditions. The molar absorbance coefficient was of 16.900 M^−1 cm^−1. The mixture consisted of 448 μl of the Tris-HCl 50 mM buffer at 9.0 pH that contained 50 μl of p-nitrophenyl diluted in isopropanol and 2 μl of the solution stock of the protein. All the assays were made by triplicate and the average was calculated.
# The optimum temperature of the modified enzyme was evaluated between 30 and 90° C. in buffer Tris HCl 50 mM (pH 9.0) exposing the enzyme to 30 minutes in each evaluated temperature (Suzuki et al., 2004, Park et al., 2006). […]
# It was evaluated the activity of the enzyme by means of the p-nitrophenyl ester with some modifications, since for evaluating different pH values were used different buffer solutions, depending of the pH to evaluate: buffer acetate 50 mM (pH 5.0-6.0) buffer succinate (pH 4.0-5.5), MES (pH5.5-7.0). […] The protein was incubated for 15 minutes at a temperature higher than 45° C. and lower than 75° C. and then the quantification was made.
# [2] = Kinetic resolution of racemic phenyl ester of ibuprofen (chiral HPLC); format: biochemical
# Protocol: An evaluation was performed analytical scale to deter mine the kinetic resolution of phenyl ester substrates of ibuprofen and naproxen (Chow et al., 2012). The evaluation of the kinetic resolution for phenyl ester substrates of ibuprofen was developed in the following manner:
# i) A solution with 17.32 Ml of buffer phosphate (100 mM, pH 8.0) was mixed with 2 ml. of DMSO and 0.66 mil of the stock solution of the substrate (10 mM in DMSO). To this solution it was added 100 μl of the enzyme to evaluate. The reaction was made with continuous agitation at a temperature from 45° C. and 75° C. for 80 minutes.
# ii) The reaction was stopped by the addition of a concentrated solution of HCl (pH 1.0). Immediately thereafter, it was extracted the ibuprofen with methyl tertiary butyl ether (MTBE) twice with 20 ml of the solution.
# iii) The ibuprofen was derivatized as a methyl ester after having added a solution of diazomethane 0.5 M in ethanol. The solvent was removed by means of reduction of pressure.
# iv) The enantiomeric excess of the phenyl ester Ibuprofen and of the methyl ester ibuprofen was determined by means of chiral liquid high efficiency chromatography (HPLC—High performance liquid chromatography) (Dionex) using a Chiralpak IA column, under the following conditions: • A mobile phase n-heptane:isopropanol with a ratio of 99.8:0.2 • A flow of 0.5 mL.min^1 • Reading at 210 nm.
# v) The retention time for the enantiomer (S) methyl ester ibuprofen was of 10:23 minutes, while that for the enantiomer (R) methyl ester ibuprofen was of 11:17 minutes. The retention time for the enantiomers (S) and (R) phenyl ester ibuprofen were of 16.32 and 18.07 respectively.
# [3] = Kinetic resolution of phenyl ester of naproxen (1H-NMR, chiral HPLC); format: biochemical
# Protocol: (§1) The enantioselectivity was evaluated by means of the kinetic resolution of the substrates phenyl ester naproxen and pNP ester naproxen. The procedure was the following (Chow et al., 2012):
# (§2) i) 69.29 mL of a buffer phosphate solution (100 mM, pH 8.0) was mixed with 8 mL of DMSO-d6 and 2.64 mL of the stock solution of the substrate (10 mM in DMSO-d6). To this solution, it was added 200 μl of the enzyme to evaluate. The reaction was performed under continuous agitation at a temperature between 45° C. and 75° C. for 40 minutes.
# (§3) ii) The reaction was stopped by adding a concentrated solution of HCl (pH 1.0). Immediately, the naproxen was extracted with MTBE twice with 20 ml of the solution.
# (§4) iii) The extracted mixture of naproxen was dried under reduced pressure conditions. The transformation of this substrate was determined by means of MRI spectrographs (1H-NMR, Hydrogen-1 nuclear magnetic resonance) in which were compared the signals generated by the methyl groups from the naproxen and its corresponding esters.
# (§5) iv) After measuring the samples containing the naproxen and the phenyl ester of naproxen, these samples were mixed with MTBE, 20 mL and extracted again with 20 mL, from an aqueous solution of NaHCO3.
# (§6) v) The aqueous phase was acidified with HCl and it was extracted with MTBE, 20 ml. The extracted naproxen was derivatized to methyl ester through the addition of a solution of diazomethane 0.5 M in ethanol. The solvent was removed by a reduced pressure.
# (§7) vi) The enantiomeric excess of the methyl ester ibuprofen was determined by means of chiral liquid high efficiency chromatography (HPLC—High performance liquid chromatography) (Dionex) using a Chiralcel ODH, under the following conditions • A mobile phase n-heptane: isopropanol with a ratio of 99:1 • A flow of 0.5 mL.min^1 • Reading at 225 nm.
# (§8) vii) The retention time for the (S) and (R) enantiomers of methyl ester naproxen were of 22.84 and 19.39 minutes, respectively.
# [4] = Kinetic resolution of pNP ester of naproxen (1H-NMR, chiral HPLC); format: biochemical
# Protocol: as §1, §2, §3, §4, §5, §6, §7, §8
# viii) The samples evaluated by NMR, underwent an additional test for determining the ee, by means of chiral HPLC with a CD detector (Jasco) using a Hyperclone ODS C18 column, under the following conditions: • A mobile phase of acetonitrile:water in a ratio of 80:20. • Flow of 0.5 mL.min^−1 • Reading of 220 nm
# ix) The retention time for the p-NP ester of naproxen was of 3.83 minutes. The CD signal was measured at 280 nm.
# [5] = Storage of the purified modified protein in Tris-HCl buffer; format: physicochemical; conditions: Tris-HCL buffer at 9.0 pH, 4° C.
# Protocol: Thereafter, the product of the elution was concentrated in Amicon columns of 30 kDa. This concentration process was strictly necessary in order to be able to rule out the elution solution in which it was the protein and permit to leave it in a Tris-HCL buffer at a 9.0 pH, which permits stability to the modified protein. […] The purity of the protein was evaluated in a SDS-PAGE gel at 12% (p/v).
# [6] = calculated by method of Kroutil et al, 1997
molecule,measurement,setting,value
"499EST: esterase enzyme of SEQ No. 2 from strain USBA-GBX-499 with a C-terminal tail of 5-10 histidine residues (protein, listed as Acidicaldus sp., C-terminal histidine tail; amino acid sequence of 499EST) MPLDRHAEAVLEMIRQSGRPPYETLTPAEARGLYRQAREVLAPEPPPVAEVRDLSLPHPAGPALPTRLYRPQQGGAPLPLLVYFHGGGWVIGDLETHDVVCREIANRAGIGVLSIDYRLAPEHKFPAAVEDAFAATRWAAKEAPSLGFDPARLAVGGDSAGGNLAAVVSLLAREQGGPSIAFQLLIYPATDLGMTHPSHQRWAEGYLLTRPTMEWFRAHYLTDPTREIADWRVSPLRAPDLRGLPPAFVLTAEYDPLVDEGEDYAARLAAAGVPVATHRVPGMIHGFLTMGKAIPAANEALGLIAERLRAALA",pH of optimum activity,[1],9.0
same,temperature of optimum activity,[1],55 °C
same,conversion c,[2]; [6],56%
same,enantioselectivity E,[2]; [6],4
same,ee of the substrate (phenyl ester of ibuprofen),[2]; chiral HPLC,50%
same,ee of the product,"[2]; chiral HPLC, product derivatized as methyl ester",40%
same,conversion,[3]; 1H-RMN,52%
same,ee of naproxen product,[3]; HPLC,65%
same,enantioselectivity E,[3]; phenyl ester of naproxen,10
same,conversion,[4]; 1H-RMN,49%
same,ee of naproxen product,[4]; HPLC,31%
same,enantioselectivity lower for the pNP ester than for the phenyl ester,[4]; naproxen esters,5 times
same,enantioselectivity E,[4]; pNP ester of naproxen,2
same,storage time,[5],several months
